B1: ranpirnase (protein, UniProt P22069 1-104, looked up)
Protein P-30: QDWLTFQKKHITNTRDVDCDNIMSTNLFHCKDKNTFIYSRPEPVKAICKGIIASKNVLTTSEFYLSDCNVTSRPCKYKLKKSTNKFCVTCENQAPVHFVGVGSC
notes: An RNase disclosed and claimed in U.S. Pat. No. 5,559,212; registered trademark ONCONASE

Legend:
[1] = test system: HPV type 11; experiment: quantitative reverse transcriptase PCR (QRT-PCR) antiviral assay against HPV type 11 in A-431 cells; type: cell-based, type 11 human papillomavirus; conditions: HPV-11 in A-431 cells
Description: To evaluate the activity of the tested RNases against type 11 HPV infections, the following quantitative PCR assay was used:
Solutions of the tested RNases were prepared in cell culture medium without use of dimethyl sulfoxide (“DMSO”). DMSO is unnecessary because the tested RNases are water-soluble.
HPV is an DNA virus. Antiviral activity against HPV type 11 was evaluated using a quantitative reverse transcriptase PCR (QRT-PCR) assay. Initially, on Day 1, 1 million A-431 cells were placed in 6-well dishes in Dulbecco's Modified Eagle Medium (“DMEM”) supplemented with 10% fetal bovine serum (“FBS”). The cells were then incubated for two days at 37° C.
After this incubation period, on day 2 replicate aliquots of HPV-11 were added to each non-control well, representing a multiplicity of infection (“MOI”) of 150 particles per cell in DMEM containing 2.5% FBS.
One day later, i.e. on day 3, DMEM with 10% FBS was added to each cell culture well.
One day later, i.e. on day 4, the tested compounds were added to the non-control cell culture wells. Control wells received media alone, or the vehicle used to dilute the tested compounds. Cidofovir diluted to 300 ug/ml was used as a positive control. […]
Finally, one day later, on […], QRT-PCR was carried out to quantitate the proportion of viral E1^E4 transcripts and a cellular reference RNA for the TATA-binding protein (“TBP”). […]

[2] = test system: cancer cells; conditions: because of enzymatic activity against RNA; cited from earlier work
[3] = cited from earlier work

Row | Molecule | activity against type 11 HPV (as seen in FIG. 1; SI = CC50/EC50) [1] | cytotoxicity to cancer cells [2] | toxicity and tolerability in humans [3]
1 | Val11, Asn20, Arg103—Ranpirnase ['805 variant] | extraordinarily active | cytotoxic to certain cancer cells | –
2 | B1 | extraordinarily active | cytotoxic to cancer cells | non-toxic and well-tolerated
